According to patent US20260103522A1 (published 2026):
Substitutions are numbered along the chain they refer to.

T1: recombinant human FcεRIa extracellular region-mouse IgG2a Fc-6×His fusion protein (human, UniProt P12319 26-205)
T1 chain (part 1 of 2): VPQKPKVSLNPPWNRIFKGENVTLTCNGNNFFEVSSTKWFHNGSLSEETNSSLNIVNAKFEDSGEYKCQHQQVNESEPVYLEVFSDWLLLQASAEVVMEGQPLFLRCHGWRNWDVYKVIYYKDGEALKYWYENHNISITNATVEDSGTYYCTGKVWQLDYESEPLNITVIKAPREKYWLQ
T1 chain (part 2 of 2): HHHHHH

T2: recombinantly expressed human FcεRIa-Fc protein (human, UniProt P12319 26-205)
T2 chain: T1 chain (part 1 of 2)

B1: binding protein DB365 (designed binder)
chain: TKKCADSNPRGVSVFLFPPKPKDTLMISRTPEVTCVVVDLAPSKGTVKFNWYVDGVEVHNAKTKPREKQRNGTLTVVSVLTVLHQDWLNGKEYKCKVTHPHLPRALEKTISKAKGQPREPQVYTLPPSREEMTKNQVSLTCLVKGFYPSDIAVEWESNGQPENNYKTTPPVLDSDGSFFLYSKLTVDKSRWQQGNVFSCSVMHEALHNHYTQKSLSLSPGK
B2: Her2-specific binding protein DB871 (antibody)
heavy: EVQLVESGGGLVQPGGSLRLSCAASGFTFTDYTMDWVRQAPGKGLEWVADVNPNSGGSIYNQRFKGRFTLSVDRSKNTLYLQMNSLRAEDTAVYYCARNLGPSFYFDYWGQGTLVTVSSASTKGPSVFPLAPSSKSTSGGTAALGCLVKDYFPEPVTVSWNSGALTSGVHTFPAVLQSSGLYSLSSVVTVPSSSLGTQTYICNVNHKPSNTKVDKKVEPKSCSRDFTPPTVKILQSSCDGGGHFPPTIQLLCLVSGYTPGTINITWLEDGQVMDVDLSTASTTQEGELASTQSELTLSQKHWLSDRTYTCQVTYQGHTFEDSTKKCADSNPRGVSVFLFPPKPKDTLMISRTPEVTCVVVDLAPSKGTVKFNWYVDGVEVHNAKTKPREKQRNGTLTVVSVLTVLHQDWLNGKEYKCKVTHPHLPRALEKTISKAKGQPREPQVYTLPPSREEMTKNQVSLTCLVKGFYPSDIAVEWESNGQPENNYKTTPPVLDSDGSFFLYSKLTVDKSRWQQGNVFSCSVMHEALHNHYTQKSLSLSPGK
light: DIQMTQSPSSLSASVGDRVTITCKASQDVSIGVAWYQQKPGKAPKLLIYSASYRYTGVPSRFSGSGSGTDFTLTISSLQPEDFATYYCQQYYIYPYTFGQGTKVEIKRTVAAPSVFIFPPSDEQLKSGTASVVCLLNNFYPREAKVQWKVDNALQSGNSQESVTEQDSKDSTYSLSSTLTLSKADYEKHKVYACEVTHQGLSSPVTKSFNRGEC
B3: binding protein DB-B64 (designed binder)
chain: CPAPELLGGPSVFLFPPKPKDTLMISRTPEVTCVVVDLAPSKGTVKFNWYVDGVEVHNAKTKPREKQRNGTLTVVSVLTVLHQDWLNGKEYKCKVTHPHLPRALEKTISKAKGQPREPQVYTLPPSREEMTKNQVSLTCLVKGFYPSDIAVEWESNGQPENNYKTTPPVLDSDGSFFLYSKLTVDKSRWQQGNVFSCSVMHEALHNHYTQKSLSLSPGK
B4: binding protein DB366 (designed binder)
chain: CADSNPRGVSVFLFPPKPKDTLMISRTPEVTCVVVDLAPSKGTVKFNWYVDGVEVHNAKTKPREKQRNGTLTVVSVLTVLHQDWLNGKEYKCKVTHPHLPRALEKTISKAKGQPREPQVYTLPPSREEMTKNQVSLTCLVKGFYPSDIAVEWESNGQPENNYKTTPPVLDSDGSFFLYSKLTVDKSRWQQGNVFSCSVMHEALHNHYTQKSLSLSPGK
B5: Her2-specific binding protein DB872 (antibody)
heavy: EVQLVESGGGLVQPGGSLRLSCAASGFTFTDYTMDWVRQAPGKGLEWVADVNPNSGGSIYNQRFKGRFTLSVDRSKNTLYLQMNSLRAEDTAVYYCARNLGPSFYFDYWGQGTLVTVSSASTKGPSVFPLAPSSKSTSGGTAALGCLVKDYFPEPVTVSWNSGALTSGVHTFPAVLQSSGLYSLSSVVTVPSSSLGTQTYICNVNHKPSNTKVDKKVEPKSCDKTHTCPPCPADSNPRGVSVFLFPPKPKDTLMISRTPEVTCVVVDLAPSKGTVKFNWYVDGVEVHNAKTKPREKQRNGTLTVVSVLTVLHQDWLNGKEYKCKVTHPHLPRALEKTISKAKGQPREPQVYTLPPSREEMTKNQVSLTCLVKGFYPSDIAVEWESNGQPENNYKTTPPVLDSDGSFFLYSKLTVDKSRWQQGNVFSCSVMHEALHNHYTQKSLSLSPGK
light: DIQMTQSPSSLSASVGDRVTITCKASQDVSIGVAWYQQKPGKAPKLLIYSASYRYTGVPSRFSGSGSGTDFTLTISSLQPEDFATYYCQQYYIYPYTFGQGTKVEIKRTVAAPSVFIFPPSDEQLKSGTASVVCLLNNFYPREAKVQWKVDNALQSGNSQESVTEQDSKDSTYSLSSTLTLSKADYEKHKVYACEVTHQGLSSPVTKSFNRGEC
B6: binding protein DB364 (designed binder)
chain: DFTPPTVKILQSSCDGGGHFPPTIQLLCLVSGYTPGTINITWLEDGQVMDVDLSTASTTQEGELASTQSELTLSQKHWLSDRTYTCQVTYQGHTFEDSTKKCADSNPRGVSVFLFPPKPKDTLMISRTPEVTCVVVDLAPSKGTVKFNWYVDGVEVHNAKTKPREKQRNGTLTVVSVLTVLHQDWLNGKEYKCKVTHPHLPRALEKTISKAKGQPREPQVYTLPPSREEMTKNQVSLTCLVKGFYPSDIAVEWESNGQPENNYKTTPPVLDSDGSFFLYSKLTVDKSRWQQGNVFSCSVMHEALHNHYTQKSLSLSPGK
B7: binding protein DB177 (designed binder)
chain: CSRDFTPPTVKILQSSCDGGGHFPPTIQLLCLVSGYTPGTINITWLEDGQVMDVDLSTASTTQEGELASTQSELTLSQKHWLSDRTYTCQVTYQGHTFEDSTKKCADSNPRGVSVFLFPPKPKDTLMISRTPEVTCVVVDLAPSKGTVKFNWYVDGVEVHNAKTKPREKQRNGTLTVVSVLTVLHQDWLNGKEYKCKVTHPHLPRALEKTISKAKGQPREPQVYTLPPSREEMTKNQVSLTCLVKGFYPSDIAVEWESNGQPENNYKTTPPVLDSDGSFFLYSKLTVDKSRWQQGNVFSCSVMHEALHNHYTQKSLSLSPGK
B8: binding protein DB-B63 (designed binder)
chain: B4 chain with K45N, K93R

Target: T1, recombinant human FcεRIa extracellular …
Assay: BLI

First: B1
Second: B2
The Kd of the first is 2.7-fold lower: 0.719 nM for the first, 1.91 nM for the second.

Going from B3 to B4, the Kd falls from 4.68 nM to 1.68 nM (2.8-fold).

B5 and B6 are within 1.5-fold of each other in Kd: 1.81 nM for the first, 1.78 nM for the second.

Target: T2, recombinantly expressed human FcεRIa-Fc …
Assay: blocking ELISA; blocking human IgE binding

B2 and B4 are within 1.5-fold of each other in IC50: 61.2 nM for the first, 59.7 nM for the second.

In the case of B5, the IC50 is reported as 77.4 nM.

Target: T2, recombinantly expressed human FcεRIa-Fc …
Assay: blocking ELISA; blocking human IgE binding
Remark: another data set of the same source

B1 and B4 are within 1.5-fold of each other in IC50: 12.8 nM for the first, 16.2 nM for the second.

B6 and B7 are within 1.5-fold of each other in IC50: 15.7 nM for the first, 18.4 nM for the second.

Target: T2, recombinantly expressed human FcεRIa-Fc …
Assay: blocking ELISA; blocking human IgE binding
Remark: another data set of the same source

Going from B3 to B4, the EC50 falls from 24.5 nM to 8.94 nM (2.7-fold). The second is the more potent here.

Work on B8 yielded an EC50 of 6.52 nM.
